Assay results: the supplement of paper PMC9112550, “Optimization of the antimicrobial peptide Bac7 by deep mutational scanning” (BMC Biology, 2022)

Each sequence was assayed on Escherichia coli TOP10 (assay: shrunken log2 fold change of peptide-encoding DNA abundance (4.5 h post-induction vs induction); higher = less antimicrobial activity (less host growth inhibition)). Settings: time post-induction: 4.5 h; library: site-saturation at positions 5, 18, 19, 20.
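Also: peptides expressed intracellularly from a pBAD plasmid library in pooled LB shake-flask culture, induced with 0.3% L-arabinose, DNA abundance read by NGS, three biological replicates, DESeq2 with apeglm shrinkage.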

Sequence | shrunken log2 fold change
RRIRFRPPRLPRPRPRPKGCPRP | 0.418
RRIRMRPPRLPRPRPRPHQCPRP | -0.0247
RRIRMRPPRLPRPRPRPGENPRP | 0.00897
RRIRWRPPRLPRPRPRPHNYPRP | -0.267
RRIRWRPPRLPRPRPRPRDRPRP | 0.909
RRIRYRPPRLPRPRPRPDALPRP | -0.212
RRIRQRPPRLPRPRPRPYCFPRP | -1
RRIRWRPPRLPRPRPRPTVIPRP | 0.0385
RRIRPRPPRLPRPRPRPLLLPRP | -0.208
RRIRCRPPRLPRPRPRPCVCPRP | -0.128
RRIRNRPPRLPRPRPRPYEEPRP | -0.277
RRIRARPPRLPRPRPRPGRTPRP | 0.683
RRIRARPPRLPRPRPRPGLNPRP | 0.196
RRIRDRPPRLPRPRPRPNTIPRP | -0.456
RRIRHRPPRLPRPRPRPTQQPRP | 0.0495
RRIRYRPPRLPRPRPRPQAWPRP | 0.0215
RRIRARPPRLPRPRPRPAAKPRP | 1.04
RRIRTRPPRLPRPRPRPQTHPRP | -0.322
RRIRHRPPRLPRPRPRPVEVPRP | 0.0201
RRIRMRPPRLPRPRPRPTMMPRP | 0.168
RRIRWRPPRLPRPRPRPPNFPRP | 0.015
RRIRLRPPRLPRPRPRPCKSPRP | -0.264
RRIRIRPPRLPRPRPRPHAQPRP | 0.142
RRIRARPPRLPRPRPRPFWRPRP | 0.36
RRIRWRPPRLPRPRPRPCGTPRP | 0.481

Sequence | shrunken log2 fold change
RRIRRRPPRLPRPRPRPAYLPRP | -0.35
RRIRKRPPRLPRPRPRPHWGPRP | 0.209
RRIRVRPPRLPRPRPRPLHHPRP | -0.253
RRIRWRPPRLPRPRPRPYFWPRP | -0.222
RRIRSRPPRLPRPRPRPWAHPRP | -0.186
RRIRFRPPRLPRPRPRPKSNPRP | -0.358
RRIRHRPPRLPRPRPRPEVDPRP | -0.00884
RRIRCRPPRLPRPRPRPPPIPRP | 0.998
RRIRFRPPRLPRPRPRPMRTPRP | 0.547
RRIRNRPPRLPRPRPRPDRFPRP | -0.148
RRIRVRPPRLPRPRPRPWLWPRP | 0.475
RRIRKRPPRLPRPRPRPERSPRP | 0.245
RRIRYRPPRLPRPRPRPVDEPRP | -0.554
RRIRWRPPRLPRPRPRPQVLPRP | -0.0271
RRIRQRPPRLPRPRPRPTHIPRP | -0.387
RRIRERPPRLPRPRPRPETVPRP | 0.0162
RRIRGRPPRLPRPRPRPAQYPRP | 0.233
RRIRMRPPRLPRPRPRPYHQPRP | -0.297
RRIRPRPPRLPRPRPRPVIDPRP | -0.0426
RRIRYRPPRLPRPRPRPCWHPRP | -0.0701
RRIRDRPPRLPRPRPRPEMDPRP | 0.0766
RRIRSRPPRLPRPRPRPGVLPRP | 0.0866
RRIRFRPPRLPRPRPRPFCVPRP | -0.722
RRIRARPPRLPRPRPRPTNKPRP | -0.0139
RRIRVRPPRLPRPRPRPDSQPRP | -0.116

Sequence | shrunken log2 fold change
RRIRLRPPRLPRPRPRPNFFPRP | 0.247
RRIRERPPRLPRPRPRPWMTPRP | -0.108
RRIRNRPPRLPRPRPRPCQKPRP | 0.00489
RRIRYRPPRLPRPRPRPSYNPRP | -0.676
RRIRIRPPRLPRPRPRPAPQPRP | 0.363
RRIRVRPPRLPRPRPRPFNIPRP | -0.425
RRIRMRPPRLPRPRPRPGRMPRP | 0.993
RRIRIRPPRLPRPRPRPCCRPRP | -0.322
RRIRERPPRLPRPRPRPEEPPRP | 0.139
RRIRYRPPRLPRPRPRPTMQPRP | -0.0804
RRIRARPPRLPRPRPRPVFRPRP | 0.143
RRIRNRPPRLPRPRPRPDLDPRP | 0.0497
RRIRYRPPRLPRPRPRPTARPRP | -0.0799
RRIRERPPRLPRPRPRPNFSPRP | -0.114
RRIRNRPPRLPRPRPRPTTDPRP | -0.199
RRIRKRPPRLPRPRPRPCRDPRP | -0.136
RRIRERPPRLPRPRPRPQPKPRP | -0.077
RRIRQRPPRLPRPRPRPQTQPRP | 0.025
RRIRIRPPRLPRPRPRPNSGPRP | -0.177
RRIRMRPPRLPRPRPRPDRCPRP | 0.0778
RRIRCRPPRLPRPRPRPECLPRP | -0.109
RRIRSRPPRLPRPRPRPCSRPRP | -0.179
RRIRNRPPRLPRPRPRPMIHPRP | -0.136
RRIRLRPPRLPRPRPRPYSQPRP | -0.0787
RRIRERPPRLPRPRPRPASNPRP | -0.257

Sequence | shrunken log2 fold change
RRIRWRPPRLPRPRPRPSMAPRP | 0.266
RRIRTRPPRLPRPRPRPLTDPRP | -0.198
RRIRLRPPRLPRPRPRPQFEPRP | -0.12
RRIRDRPPRLPRPRPRPASVPRP | 0.0326
RRIRRRPPRLPRPRPRPMSPPRP | -0.185
RRIRLRPPRLPRPRPRPMEMPRP | -0.0251
RRIRPRPPRLPRPRPRPDPRPRP | 0.649
RRIRTRPPRLPRPRPRPSMIPRP | -0.527
RRIRCRPPRLPRPRPRPDNKPRP | -0.795
RRIRPRPPRLPRPRPRPATWPRP | 0.253
RRIRSRPPRLPRPRPRPFRKPRP | -0.176
RRIRQRPPRLPRPRPRPRKFPRP | 0.214
RRIRTRPPRLPRPRPRPMYRPRP | -0.0591
RRIRKRPPRLPRPRPRPNFYPRP | 0.0337
RRIRSRPPRLPRPRPRPYTHPRP | -1.3
RRIRKRPPRLPRPRPRPRGCPRP | 0.128
RRIRERPPRLPRPRPRPPSTPRP | -0.136
RRIRFRPPRLPRPRPRPYIVPRP | -0.97
RRIRRRPPRLPRPRPRPNAMPRP | 0.258
RRIRPRPPRLPRPRPRPIWLPRP | -0.132
RRIRDRPPRLPRPRPRPLWHPRP | 0.0123
RRIRGRPPRLPRPRPRPMVAPRP | 1.17
RRIRYRPPRLPRPRPRPAWVPRP | 0.0366
RRIRDRPPRLPRPRPRPHLKPRP | 0.143
RRIRFRPPRLPRPRPRPFLFPRP | -0.457

Sequence | shrunken log2 fold change
RRIRNRPPRLPRPRPRPYVIPRP | -0.177
RRIRLRPPRLPRPRPRPSGWPRP | 0.0673
RRIRARPPRLPRPRPRPFELPRP | -0.146
RRIRGRPPRLPRPRPRPPKCPRP | 1.63
RRIRRRPPRLPRPRPRPQNDPRP | -0.212
RRIRGRPPRLPRPRPRPKCCPRP | 0.56
RRIRHRPPRLPRPRPRPMLRPRP | -0.0571
RRIRIRPPRLPRPRPRPGKDPRP | 0.00215
RRIRCRPPRLPRPRPRPGYLPRP | -0.561
RRIRCRPPRLPRPRPRPDHQPRP | -0.172
RRIRTRPPRLPRPRPRPCKMPRP | -0.47
RRIRERPPRLPRPRPRPDHWPRP | 0.0945
RRIRNRPPRLPRPRPRPNAQPRP | -0.119
RRIRPRPPRLPRPRPRPYLLPRP | -1.57
RRIRGRPPRLPRPRPRPNFGPRP | 0.128
RRIRQRPPRLPRPRPRPSLVPRP | -0.0806
RRIRFRPPRLPRPRPRPPLWPRP | 0.46
RRIRFRPPRLPRPRPRPCAYPRP | 2.21
RRIRQRPPRLPRPRPRPFLLPRP | -0.165
RRIRDRPPRLPRPRPRPRDQPRP | 0.477
RRIRLRPPRLPRPRPRPHGWPRP | 0.0568
RRIRWRPPRLPRPRPRPELQPRP | 0.326
RRIRRRPPRLPRPRPRPWTYPRP | -0.0139
RRIRMRPPRLPRPRPRPEWNPRP | 0.406
RRIRFRPPRLPRPRPRPKHPPRP | 0.194

Sequence | shrunken log2 fold change
RRIRQRPPRLPRPRPRPLMIPRP | -0.0458
RRIRNRPPRLPRPRPRPQGSPRP | -0.0968
RRIRDRPPRLPRPRPRPKFSPRP | -0.023
RRIRWRPPRLPRPRPRPGDFPRP | 0.564
RRIRHRPPRLPRPRPRPTSIPRP | 0.0484
RRIRDRPPRLPRPRPRPWWRPRP | 0.116
RRIRLRPPRLPRPRPRPQHVPRP | -0.316
RRIRYRPPRLPRPRPRPASLPRP | -0.662
RRIRGRPPRLPRPRPRPLITPRP | 0.676
RRIRGRPPRLPRPRPRPLRYPRP | 0.688
RRIRNRPPRLPRPRPRPMDEPRP | 0.358
RRIRRRPPRLPRPRPRPMFRPRP | -0.0342
RRIRIRPPRLPRPRPRPRNKPRP | -0.0432
RRIRNRPPRLPRPRPRPTKGPRP | 0.0423
RRIRNRPPRLPRPRPRPHELPRP | -0.0632
RRIRHRPPRLPRPRPRPTHRPRP | 0.0822
RRIRPRPPRLPRPRPRPCNQPRP | -0.0514
RRIRQRPPRLPRPRPRPHQCPRP | -0.401
RRIRYRPPRLPRPRPRPDFMPRP | -2.08
RRIRTRPPRLPRPRPRPKNCPRP | -0.0901
RRIRIRPPRLPRPRPRPTAMPRP | -0.191
RRIRYRPPRLPRPRPRPCKTPRP | -0.154
RRIRERPPRLPRPRPRPFFEPRP | -0.0766
RRIRIRPPRLPRPRPRPGDHPRP | 0.14
RRIRQRPPRLPRPRPRPSHQPRP | -0.0977
